Experimental findings from patent publication US20150246136A1 (Bayer, published 2015) are described below.

The target in the assay is Mesothelin (SwissProt reference Q13421-3) (Homo sapiens, UniProt Q13421 37-622). Nature of the assay: cell-based or functional assay.

Where “and” joins values, the source holds several entries; their conditions need not be identical. Equal entries are not always repeated.

B1: Example 56, conjugate of anti-mesothelin antibody MF-Ta (antibody, human IgG1, lambda, V domains shown)
VH: QVELVQSGAEVKKPGESLKISCKGSGYSFTSYWIGWVRQAPGKGLEWMGIIDPGDSRTRYSPSFQGQVTISADKSISTAYLQWSSLKASDTAMYYCARGQLYGGTYMDGWGQGTLVTVSS
VL: DIALTQPASVSGSPGQSITISCTGTSSDIGGYNSVSWYQQHPGKAPKLMIYGVNNRPSGVSNRFSGSKSGNTASLTISGLQAEDEADYYCSSYDIESATPVFGGGTKLTVLG
modifications: toxophore-linker on Cys sulfur, sites not given
For B1, the “IC50 (nM), HT29 meso+ cells, MTT proliferation assay” value (shortened to “IC50 (nM), HT29 meso+ cells”) amounted to 0.17 nM.

B2: Example 73, conjugate of anti-mesothelin antibody MF-Ta (antibody, human IgG1, lambda, V domains shown)
VH: B1 VH
VL: B1 VL
modifications: toxophore-linker on Cys sulfur, sites not given
On to B2, for which the “IC50 (nM), HT29 meso+ cells” value is 25 nM.

B3: Example 62, conjugate of anti-mesothelin antibody MF-Ta (antibody, human IgG1, lambda, V domains shown)
VH: B1 VH
VL: B1 VL
modifications: toxophore-linker on Cys sulfur, sites not given
Take B3: the “IC50 (nM), HT29 meso+ cells” value came out at 20 nM.

B4: Example 64, conjugate of anti-mesothelin antibody MF-Ta (antibody, human IgG1, lambda, V domains shown)
VH: B1 VH
VL: B1 VL
modifications: toxophore-linker on Cys sulfur, sites not given
Regarding B4, the “IC50 (nM), HT29 meso+ cells” value was determined as 0.11 nM.

B5: Example 90, conjugate of anti-mesothelin antibody MF-Ta (antibody, human IgG1, lambda, V domains shown)
VH: B1 VH
VL: B1 VL
modifications: toxophore-linker on Cys sulfur, sites not given
In the case of B5, the “IC50 (nM), HT29 meso+ cells” value is 2.6 nM.

B6: Example 87, conjugate of anti-mesothelin antibody MF-Ta (antibody, human IgG1, lambda, V domains shown)
VH: B1 VH
VL: B1 VL
modifications: toxophore-linker on Lys NH, sites not given
For B6, the “IC50 (nM), HT29 meso+ cells” value came out at 0.9 nM.

B7: Example 68, conjugate of anti-mesothelin antibody MF-Ta (antibody, human IgG1, lambda, V domains shown)
VH: B1 VH
VL: B1 VL
modifications: toxophore-linker on Cys sulfur, sites not given
As for B7, the “IC50 (nM), HT29 meso+ cells” value was 2 nM.

B8: Example 84, conjugate of anti-mesothelin antibody MF-Ta (antibody, human IgG1, lambda, V domains shown)
VH: B1 VH
VL: B1 VL
modifications: toxophore-linker on Lys NH, sites not given
On to B8, for which the “IC50 (nM), HT29 meso+ cells” value stood at 6 nM.

B9: Example 94, conjugate of anti-mesothelin antibody MF-Ta (antibody, human IgG1, lambda, V domains shown)
VH: B1 VH
VL: B1 VL
modifications: toxophore-linker on Cys sulfur, sites not given
For the molecule B9, the “IC50 (nM), HT29 meso+ cells” value is 0.6 nM.

B10: Example 82, conjugate of anti-mesothelin antibody MF-Ta (antibody, human IgG1, lambda, V domains shown)
VH: B1 VH
VL: B1 VL
modifications: toxophore-linker on Cys sulfur, sites not given
For B10, the “IC50 (nM), HT29 meso+ cells” value worked out at 24 nM.

B11: Example 96, conjugate of anti-mesothelin antibody MF-Ta (antibody, human IgG1, lambda, V domains shown)
VH: B1 VH
VL: B1 VL
modifications: toxophore-linker on Cys sulfur, sites not given
On to B11, for which the “IC50 (nM), HT29 meso+ cells” value worked out at 25 nM.

B12: Example 74, conjugate of anti-mesothelin antibody MF-Ta (antibody, human IgG1, lambda, V domains shown)
VH: B1 VH
VL: B1 VL
modifications: toxophore-linker on Cys sulfur, sites not given
For B12, the “IC50 (nM), HT29 meso+ cells” value worked out at 9 nM.

B13: Example 60, conjugate of anti-mesothelin antibody MF-Ta (antibody, human IgG1, lambda, V domains shown)
VH: B1 VH
VL: B1 VL
modifications: toxophore-linker on Cys sulfur, sites not given
As to B13, the “IC50 (nM), HT29 meso+ cells” value is 0.06 nM and 0.16 nM.

B14: Example 86, conjugate of anti-mesothelin antibody MF-Ta (antibody, human IgG1, lambda, V domains shown)
VH: B1 VH
VL: B1 VL
modifications: toxophore-linker on Cys sulfur, sites not given
Regarding B14, the “IC50 (nM), HT29 meso+ cells” value turned out to be 0.45 nM.

B15: Example 88, conjugate of anti-mesothelin antibody MF-Ta (antibody, human IgG1, lambda, V domains shown)
VH: B1 VH
VL: B1 VL
modifications: toxophore-linker on Cys sulfur, sites not given
As for B15, the “IC50 (nM), HT29 meso+ cells” value stood at 0.01 nM.

B16: Example 85, conjugate of anti-mesothelin antibody MF-Ta (antibody, human IgG1, lambda, V domains shown)
VH: B1 VH
VL: B1 VL
modifications: toxophore-linker on Cys sulfur, sites not given
B16: the “IC50 (nM), HT29 meso+ cells” value is 0.2 nM.

B17: Example 67, conjugate of anti-mesothelin antibody MF-Ta (antibody, human IgG1, lambda, V domains shown)
VH: B1 VH
VL: B1 VL
modifications: toxophore-linker on Cys sulfur, sites not given
For B17, the “IC50 (nM), HT29 meso+ cells” value came out at 0.015 nM.

B18: Example 69, conjugate of anti-mesothelin antibody MF-Ta (antibody, human IgG1, lambda, V domains shown)
VH: B1 VH
VL: B1 VL
modifications: toxophore-linker on Cys sulfur, sites not given
Turning to B18, the “IC50 (nM), HT29 meso+ cells” value came to 0.07 nM.

B19: Example 58, conjugate of anti-mesothelin antibody MF-Ta (antibody, human IgG1, lambda, V domains shown)
VH: B1 VH
VL: B1 VL
modifications: toxophore-linker on Lys NH, sites not given
For B19, the “IC50 (nM), HT29 meso+ cells” value is 5 nM.

B20: Example 83, conjugate of anti-mesothelin antibody MF-Ta (antibody, human IgG1, lambda, V domains shown)
VH: B1 VH
VL: B1 VL
modifications: toxophore-linker on Cys sulfur, sites not given
Regarding B20, the “IC50 (nM), HT29 meso+ cells” value turned out to be 0.3 nM.

B21: Example 95, conjugate of anti-mesothelin antibody MF-Ta (antibody, human IgG1, lambda, V domains shown)
VH: B1 VH
VL: B1 VL
modifications: toxophore-linker on Cys sulfur, sites not given
As to B21, the “IC50 (nM), HT29 meso+ cells” value stood at 0.013 nM.

B22: Example 71, conjugate of anti-mesothelin antibody MF-Ta (antibody, human IgG1, lambda, V domains shown)
VH: B1 VH
VL: B1 VL
modifications: toxophore-linker on Cys sulfur, sites not given
Turning to B22, the “IC50 (nM), HT29 meso+ cells” value was determined as 0.6 nM.

B23: Example 59, conjugate of anti-mesothelin antibody MF-Ta (antibody, human IgG1, lambda, V domains shown)
VH: B1 VH
VL: B1 VL
modifications: toxophore-linker on Lys NH, sites not given
As to B23, the “IC50 (nM), HT29 meso+ cells” value amounted to 1 nM.

B24: Example 63, conjugate of anti-mesothelin antibody MF-Ta (antibody, human IgG1, lambda, V domains shown)
VH: B1 VH
VL: B1 VL
modifications: toxophore-linker on Cys sulfur, sites not given
For B24, the “IC50 (nM), HT29 meso+ cells” value amounted to 0.03 nM.

B25: Example 57, conjugate of anti-mesothelin antibody MF-Ta (antibody, human IgG1, lambda, V domains shown)
VH: B1 VH
VL: B1 VL
modifications: toxophore-linker on Cys sulfur, sites not given
For the molecule B25, the “IC50 (nM), HT29 meso+ cells” value worked out at 0.4 nM.

B26: Example 92, conjugate of anti-mesothelin antibody MF-Ta (antibody, human IgG1, lambda, V domains shown)
VH: B1 VH
VL: B1 VL
modifications: toxophore-linker on Cys sulfur, sites not given
B26: the “IC50 (nM), HT29 meso+ cells” value came to 38 nM.

B27: Example 78, conjugate of anti-mesothelin antibody MF-Ta (antibody, human IgG1, lambda, V domains shown)
VH: B1 VH
VL: B1 VL
modifications: toxophore-linker on Cys sulfur, sites not given
As for B27, the “IC50 (nM), HT29 meso+ cells” value is 1.1 nM.

B28: Example 93, conjugate of anti-mesothelin antibody MF-Ta (antibody, human IgG1, lambda, V domains shown)
VH: B1 VH
VL: B1 VL
modifications: toxophore-linker on Lys NH, sites not given
Take B28: the “IC50 (nM), HT29 meso+ cells” value was determined as 52 nM.

B29: Example 89, conjugate of anti-mesothelin antibody MF-Ta (antibody, human IgG1, lambda, V domains shown)
VH: B1 VH
VL: B1 VL
modifications: toxophore-linker on Cys sulfur, sites not given
Take B29: the “IC50 (nM), HT29 meso+ cells” value was determined as 0.06 nM.

B30: Example 77, conjugate of anti-mesothelin antibody MF-Ta (antibody, human IgG1, lambda, V domains shown)
VH: B1 VH
VL: B1 VL
modifications: toxophore-linker on Cys sulfur, sites not given
Consider B30, for which the “IC50 (nM), HT29 meso+ cells” value turned out to be 0.8 nM.

B31: Example 75, conjugate of anti-mesothelin antibody MF-Ta (antibody, human IgG1, lambda, V domains shown)
VH: B1 VH
VL: B1 VL
modifications: toxophore-linker on Lys NH, sites not given
For the molecule B31, the “IC50 (nM), HT29 meso+ cells” value was 0.2 nM.

B32: Example 65, conjugate of anti-mesothelin antibody MF-Ta (antibody, human IgG1, lambda, V domains shown)
VH: B1 VH
VL: B1 VL
modifications: toxophore-linker on Cys sulfur, sites not given
Consider B32, for which the “IC50 (nM), HT29 meso+ cells” value was 0.14 nM.

B33: Example 81, conjugate of anti-mesothelin antibody MF-Ta (antibody, human IgG1, lambda, V domains shown)
VH: B1 VH
VL: B1 VL
modifications: toxophore-linker on Cys sulfur, sites not given
As to B33, the “IC50 (nM), HT29 meso+ cells” value came out at 0.02 nM.

B34: Example 91, conjugate of anti-mesothelin antibody MF-Ta (antibody, human IgG1, lambda, V domains shown)
VH: B1 VH
VL: B1 VL
modifications: toxophore-linker on Cys sulfur, sites not given
Consider B34, for which the “IC50 (nM), HT29 meso+ cells” value was 0.35 nM.

B35: Example 97, conjugate of anti-mesothelin antibody MF-Ta (antibody, human IgG1, lambda, V domains shown)
VH: B1 VH
VL: B1 VL
modifications: toxophore-linker on Cys sulfur, sites not given
As to B35, the “IC50 (nM), HT29 meso+ cells” value was found to be 0.2 nM.

B36: Example 66, conjugate of anti-mesothelin antibody MF-Ta (antibody, human IgG1, lambda, V domains shown)
VH: B1 VH
VL: B1 VL
modifications: toxophore-linker on Cys sulfur, sites not given
For the molecule B36, the “IC50 (nM), HT29 meso+ cells” value was 1.5 nM.

B37: Example 72, conjugate of anti-mesothelin antibody MF-Ta (antibody, human IgG1, lambda, V domains shown)
VH: B1 VH
VL: B1 VL
modifications: toxophore-linker on Cys sulfur, sites not given
For the molecule B37, the “IC50 (nM), HT29 meso+ cells” value was found to be 0.05 nM.

B38: Example 61, conjugate of anti-mesothelin antibody MF-Ta (antibody, human IgG1, lambda, V domains shown)
VH: B1 VH
VL: B1 VL
modifications: toxophore-linker on Cys sulfur, sites not given
On to B38, for which the “IC50 (nM), HT29 meso+ cells” value amounted to 0.019 nM.

B39: Example 79, conjugate of anti-mesothelin antibody MF-Ta (antibody, human IgG1, lambda, V domains shown)
VH: B1 VH
VL: B1 VL
modifications: toxophore-linker on Cys sulfur, sites not given
Regarding B39, the “IC50 (nM), HT29 meso+ cells” value turned out to be 0.5 nM.

B40: Example 70, conjugate of anti-mesothelin antibody MF-Ta (antibody, human IgG1, lambda, V domains shown)
VH: B1 VH
VL: B1 VL
modifications: toxophore-linker on Cys sulfur, sites not given
For B40, the “IC50 (nM), HT29 meso+ cells” value is 0.02 nM.

B41: Example 80, conjugate of anti-mesothelin antibody MF-Ta (antibody, human IgG1, lambda, V domains shown)
VH: B1 VH
VL: B1 VL
modifications: toxophore-linker on Cys sulfur, sites not given
B41: the “IC50 (nM), HT29 meso+ cells” value stood at 4.4 nM.

B42: Example 76, conjugate of anti-mesothelin antibody MF-Ta (antibody, human IgG1, lambda, V domains shown)
VH: B1 VH
VL: B1 VL
modifications: toxophore-linker on Cys sulfur, sites not given
As to B42, the “IC50 (nM), HT29 meso+ cells” value is 0.35 nM.
